Laboratory results taken from patent publication US20090297524A1 (DOMANTIS, published 2009).
Numbering of substitutions follows the chain as printed.

T1: Recombinant human CD40L (human, UniProt P29965 108-261, limits assumed)
T1 construct: also called CD40 ligand
T1 sequence (looked up): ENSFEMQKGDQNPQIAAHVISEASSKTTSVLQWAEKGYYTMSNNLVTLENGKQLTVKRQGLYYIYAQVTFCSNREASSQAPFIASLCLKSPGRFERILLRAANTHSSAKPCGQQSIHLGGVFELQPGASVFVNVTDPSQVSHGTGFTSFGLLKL

B1: DOM-11 (other)
VH: EVQLLESGGGLVQPGGSLRLSCAASGFTFGDYEMSWVRQAPGKGLEWVSGIDGEGSDTYYADSVKGRFTISRDNSKNTLYLQMNSLRAEDTAVYYCAKPGRSFDYWGQGTLVTVSS
notes: VH dAb
B2: DOM-84 (other)
VH: EVQLLESGGGLVQPGGSLRLSCAASGFTFRQYQMAWARQAPGKGLEWVSTIASDGVSTYYADSVKGRFTISRDNSKNTLYLQMNSLRAEDTAVYYCAKVGRDFDYWGQGTLVTVSS
notes: VH dAb
B3: DOM-26 (other)
VH: EVQLLESGGGLVQPGGSLRLSCAASGFTFRSYEMTWVRQAPGKGLEWVSSITSDGGTTYYADSVKGRFTISRDNSKNTLYLQMNSLRAEDTAVYYCAKPDKTFDYWGQGTLVTVSS
notes: VH dAb
B4: DOM-19 (other)
VH: EVQLLESGGGLVQPGGSLRLSCAASGFPFPQYQMAWVRQAPGKGLEWVSMITSDGLDTYYADSVKGRFTISRDNSKNTLYLQMNSLRAEDTAVYYCAKPEPLFDYWGQGTLVTVSS
notes: VH dAb
B5: DOM-58 (other)
VH: B1 VH with G30E, D31V, E33T, S35A, G50T, G53E, E54S, S56R, R101V, S102W
notes: VH dAb
B6: DOM-65 (other)
VH: B3 VH with R30N, S31E, S50T, D54E, G56S, T57G, D100N, K101G, T102K
notes: VH dAb
B7: DOM-23 (other)
VH: B1 VH with D31L, S35T, G50S, D52T, E54D, S56I, D57S, K76R, P99A, S102K
notes: VH dAb
B8: DOM-66 (other)
VH: B1 VH with G30S, S35L, G50T, D52T, G53S, S56H, D57S, R101T
notes: VH dAb
B9: DOM-68 (other)
VH: B3 VH with R30K, S31D, T52S, D54T, G56Q, T57S, D100G, K101N, T102K
notes: VH dAb
B10: DOM-29 (other)
VH: B2 VH with R30G, Q31R, A37V, T50S, A52S, V56G, S57G, V99P, D102A
notes: VH dAb
B11: DOM-25 (other)
VH: B3 VH with R30D, S31N, S50T, D54Q, G56T, T57S, K101R, T102S
notes: VH dAb
B12: DOM-74 (other)
VH: EVQLLESGGGLVQPGGSLRLSCAASGFTFSDYPMTWVRQAPGKGLEWVSTILSPGTETYYADSVKGRFTISRDNSKNTLYLQMNSLRAEDTAVYYCAKAEKDFDYWGQGTLVTVSS
notes: VH dAb
B13: DOM.129 (other)
VH: B3 VH with R30P, S31K, T35A, T52D, S53G, G56K, T57S, K101Q, T102F
notes: VH dAb
B14: DOM.130 (other)
VH: EVQLLESGGGLVQPGGSLRLSCTASGFTFAGYQMSWVRQAPGKGLEWVSSITNEGVSTYYADSVKGRFTISRDNSKNTLYLQMNSLRAEDTAVYYCAKPGKYFDYWGQGTLVTVSS
notes: VH dAb
B15: DOM-83 (other)
VH: B4 VH with P28T, P30A, Q31L, M50S, T52D, D54S, L56S, P101R, L102D
notes: VH dAb
B16: DOM-14 (other)
VH: B3 VH with R30W, E33D, T52M, S53A, D54S, G56D, T57D, P99W, K101R, T102D
notes: VH dAb
B17: DOM-78 (other)
VH: B2 VH with R30E, Q31R, A37V, A52S, V56G, S57G, V99P, R101H, D102R
notes: VH dAb
B18: DOM-43 (other)
VH: B3 VH with R30A, T35A, T52G, T57P, T91S, K101R, T102A
notes: VH dAb
B19: DOM.128 (other)
VH: B2 VH with R30E, Q31R, A37V, A52S, V56G, S57G, V99P, R101T, D102V
notes: VH dAb
B20: DOM-57 (other)
VH: B1 VH with G30S, D31E, E33D, S35Y, G50W, G53T, E54D, S56G, R101L, S102K
notes: VH dAb
B21: DOM-42 (other)
VH: B1 VH with D31P, S35T, G50S, D52V, E54D, S56L, G100D, S102V
notes: VH dAb
B22: DOM.134 (other)
VH: B3 VH with R30A, S31D, G56V, T57S, D100S, K101V, T102Q
notes: VH dAb
B23: DOM-41 (other)
VH: B3 VH with R30F, S31E, T52A, S53N, G56S, K101R, T102Q
notes: VH dAb
B24: DOM-67 (other)
VH: B1 VH with G30S, G50T, G53S, E54D, D57F, R101V, S102K
notes: VH dAb
B25: DOM.178 (other)
VH: EVQLLESGGGLVQPGGSLRLSCAASGFTFEDFDMAWVRQAPGKGLEWVSSINDQGSLTYYADSVKGRFTISRDNSKNTLYLQMNSLRAEDTAVYYCAKPDQFFDYWGQGTLVTVSS
notes: VH dAb
B26: DOM-28 (other)
VH: B1 VH with D31H, E33D, S35A, G50T, D52S, G53D, E54N, S56N, D57G, S102D
notes: VH dAb
B27: DOM-22 (other)
VH: B1 VH with G30H, D31N, G50S, D52S, G53S, E54G, D57S, R101V, S102K
notes: VH dAb
B28: DOM-73 (other)
VH: B1 VH with G30S, D31K, E33D, G50T, D52L, G53E, E54D, S56L, D57T, S102L
notes: VH dAb
B29: DOM-80 (other)
VH: B3 VH with R30G, S31R, E33Q, T35A, T52S, T57G, D100S, K101R, T102R
notes: VH dAb
B30: DOM.131 (other)
VH: B3 VH with R30G, S31E, T35V, G56L, T57S, D100G, K101I, T102R
notes: VH dAb
B31: DOM.97 (other)
VH: EVQLLESGGGLVQPGGSLRLSCAASGFTFEEYGMSWVRQAPGKGLEWVSTISPIGVTTYYADSVKGRFTISRDNSKNTLYLQMNSLRAEDTAVYYCAKNAYDRKSNFDYWGQGTLVTVSS
notes: VH dAb
B32: DOM.98 (other)
VH: EVQLLESGGGLVQPGGSLRLSCAASGFTFDRYVMVWVRQAPGKDLEWVSGITPSGRRTYYADSVKGRFTISRDNSKDTLYLQMNSLRAEDTAVYYCAKVLGRHFDPLLPSFDYWGQGTLVTVSS
notes: VH dAb

What follows are binders tested against T1, Recombinant human CD40L (assay: CD40L/CD40-Fc receptor binding assay;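 note: plate assay with coated human CD40-Fc, bound ligand detected via HRP anti-biotin antibody and TMB, OD at 450 nm, lower signal indicates stronger inhibition by dAb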).
Description: A 96 well Nunc Maxisorp assay plate was coated overnight at 4° C. with 100 μl per well of recombinant human CD40/Fc (R&D Systems) at 0.5 μg/ml in carbonate buffer. The plate was washed 3 times with 300 μl of 0.05% Tween/PBS and 3 times with 300 μl of PBS using a Tecan plate washer. The wells were blocked using 200 μl of PBS containing 2% (w/v) BSA and incubated for a minimum of 1 h at room temperature. The wells were washed as above, then 50 μl of purified dAb protein (or unpurified supernatant containing dAb from a micro-culture expression) was added to each well.
The plate was washed as described above, then 100 μl HRP conjugated anti-biotin antibody (1:5000 dilution in diluent) added to each well and the plate incubated for 1 hr at room temperature. The plate was washed again as described above using a Tecan plate washer and the assay developed using 100 μl of SureBlue 1-Component TMB MicroWell Peroxidase solution (the plate was left at room temperature for up to 20 min). The reaction was stopped by the addition of 100 μl M hydrochloric acid. The OD₄₅₀ₙₘ of the plate was assayed within 30 minutes of acid addition. The OD₄₅₀ₙₘ is proportional to the amount of bound streptavidin-HRP conjugate, therefore the greater the degree of dAb inhibition the lower the OD₄₅₀ₙₘ of the resulting signal.

Row | binding result | Binder
1 | binds | B1
2 | binds | B2
3 | binds | B3
4 | binds | B4
5 | binds | B5
6 | binds | B6
7 | binds | B7
8 | binds | B8
9 | binds | B9
10 | binds | B10
11 | binds | B11
12 | binds | B12
13 | binds | B13
14 | binds | B14
15 | binds | B15
16 | binds | B16

Row | binding result | Binder
17 | binds | B17
18 | binds | B18
19 | binds | B19
20 | binds | B20
21 | binds | B21
22 | binds | B22
23 | binds | B23
24 | binds | B24
25 | binds | B25
26 | binds | B26
27 | binds | B27
28 | binds | B28
29 | binds | B29
30 | binds | B30
31 | binds | B31
32 | binds | B32
